Patent publication US7063946B2, “Methods, reagents, kits and apparatus for protein function analysis” (Meso Scale Technologies, LLC., priority 2001, dated 2006)
Where “and” joins values, the source holds several entries; their conditions need not be identical. Equal entries are not always repeated.

Experiments:
[1] = target: T1, IkB peptide (SEQ ID NO: 1) (Homo sapiens, UniProt P25963); assay: 96-well screen for phosphopeptide binding proteins, 7-spot IPR plates; settings: two steps of normalization, top 9 clones
T1 construct: two phosphoserines in the DSGLDS motif (chemical modification); purchased New England Peptide, Fitchburg Mass; host or cells: chemical synthesis
T1 sequence (P25963 with tags, fused parts or gaps limits assumed): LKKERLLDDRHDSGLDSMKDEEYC
Procedure: (§1) A screen was conducted using 7-spot IPR plates. The 7 spot NPT IPR plates are described in more detail in copending Provisional Application No. 60/301,932 (entitled “Assay Plates, Reader Systems and Methods for Luminescence Test Measurements”, filed on Jun. 29, 2001, hereby incorporated by reference) and particularly in the description of Plate Type D in Example 6.1 (NPT IPR plate) and U.S. application Ser. Nos. 10/185,274 and 10/185,363, filed Jun. 28, 2002, each hereby incorporated by reference. These plates consist of a 96 wells with 7 zones (spots) for the immobilization of proteins or other reagents. Each spot was coated with BSA conjugated to either a single phosphopeptide or multiple phosphopeptides.
(§2) The plates were prepared essentially as described in example 12. The seven spots supported, respectively, the following BSA conjugates IkB, pY992, pY1068, pY1148, Myc, “A”, and “6-P”. “A” refers to a conjugate of BSA with multiple peptides: IkB, pY1148, Myc which were then coupled to BSA. “6-P” refers to a conjugate of BSA with the following multiple peptides: IkB, pY1148, pY992, pY1068, Smad3C.
(§3) For the assay, 4 ul from TnT reaction product described above were added to the coated plate containing 50 μl of binding buffer supplemented with 50 ng/well Ru-Streptavidin. The binding reaction was allowed to proceed at room temperature for 1 hour with constant shaking. […] The ECL signals were measured using an imaging plate reader (IPR). The raw data from the IPR reader was then normalized using two steps of normalization. The first round was based on the 50 lowest values for a given specific spot. These 50 lowest values were averaged and divided into each signal for that spot to generate a signal value which could be compared readily between the peptide-conjugate spots. This was then followed by a second round of normalization using the lowest normalized value for a spot within a well to divide the signals from the other spots. This method provides a means to reduce the signals from proteins which bound non specifically to all the spots within a well. […]

[2] = target: T2, Myc peptide (SEQ ID NO: 4) (Homo sapiens, UniProt P01106); assay: as above; settings: two steps of normalization; top 9 clones
T2 construct: phosphothreonine (T58) and phosphoserine (S62) (chemical modification); purchased New England Peptide, Fitchburg Mass; host or cells: chemical synthesis
T2 sequence (P01106 with tags, fused parts or gaps limits assumed): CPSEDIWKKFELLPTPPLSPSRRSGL
Procedure: as §1, §2, §3

FRK = assay: Kinase inhibitor profiling, pEY phosphorylation; type: biochemical

Molecule	normalized ECL signal, IkBa spot [1]	normalized ECL signal, IkBa spot ([1]; βTRCP positive control)	normalized ECL signal, Myc spot [2]	Inhibition specificity towards pEY phosphorylation at 10X IC50, FRK (FRK)
3491843: IMAGE clone protein: βTRCP1 [compound 3491843]	12	23	4 and 8	
COc1c(C=O)c(O)cc2c1C(=O)c1ccccc1C2=O [Damnacanthal]				H (high inhibition (“H”=less than 25% of the activity remaining))
